We go through three proteins from paper PMC5327651 (Virology, 2016).

Numbering of substitutions follows the chain as printed.

Data set [1] deals with the molecule itself. The experiment in a line: cross-linking.
Data set [2] concerns the molecule itself. The experiment in a line: FRET or BRET.

B1: WT rhTRIM5α CC-L2 peptide (residues 132-296) with an added C-terminal cysteine, fluorescently labelled (domain or fragment, rhesus macaque)
chain: LMEEVAQEYHVKLQTALEMLRQKQQEAEKLEADIREEKASWKIQIDYDKTNVSADFEQLREILDWEESNELQNLEKEEEDILKSLTKSETEMVQQTQYMRELISELEHRLQGSMMDLLQGVDGIIKRIENMTLKKPKTFHKNQRRVFRAPDLKGMLDMFRELTDAC
modifications: Alexa Fluor 488 C5-maleimide or Alexa Fluor 594 C5-maleimide on the added C-terminal cysteine
For B1, the “stoichiometry N” value in data set [1] came out at 2.

B2: RRV275-277AAA rhTRIM5α CC-L2 peptide (residues 132-296) with an added C-terminal cysteine, fluorescently labelled (domain or fragment, rhesus macaque)
chain: B1 chain with R144A, R145A, V146A
modifications: Alexa Fluor 488 C5-maleimide or Alexa Fluor 594 C5-maleimide on the added C-terminal cysteine
In the case of B2, the binding result in data set [2] is “binds”.

B3: HKN271-273AAA rhTRIM5α CC-L2 peptide (residues 132-296) with an added C-terminal cysteine, fluorescently labelled (domain or fragment, rhesus macaque)
chain: B1 chain with H140A, K141A, N142A
modifications: Alexa Fluor 488 C5-maleimide or Alexa Fluor 594 C5-maleimide on the added C-terminal cysteine
B3: the binding result in data set [2] was “binds”.
